Source: article PMC6471090

How the values were obtained:
[1] = target: wild-type green fluorescent protein (GFP) (Aequorea victoria) [GFP: P42212]; experiment: single-molecule photobleaching step counting and fluorescence intensity distribution (TIRFM); purified protein, 0.57 μg/mL solution, single spots imaged on the coverslip surface; 473-nm laser; self-association (monomer to dimer)
[2] = target: wild-type green fluorescent protein (GFP) (Aequorea victoria) [GFP: P42212]; experiment: single-molecule photobleaching step counting and fluorescence intensity distribution (TIRFM); purified protein, 0.17 μg/mL solution, single spots imaged on the coverslip surface; 473-nm laser; self-association (monomer to dimer)

percent of spots in the major intensity population (monomers) [1]: 97%
percent of spots with two-step photobleaching (dimers) [1]: 8.6%
percent of spots with one-step photobleaching (monomers) [2]: 96.5%
percent of spots with two-step photobleaching (dimers) [2]: 3.5%
stoichiometry N [2]: 2
Substance: wild-type green fluorescent protein (GFP) (from UniProt P42212 1-238) (natural protein)
